Experimental data reported in patent US20200087364A1 (IMMATICS BIOTECHNOLOGIES, published 2020).

Biological target: T1, HLA-A*01:01 (human)
T1 construct: MHC class I monomer first loaded with a UV-sensitive peptide (not identified) that is cleaved by UV irradiation and exchanged for the tested peptide; captured on streptavidin plates, detected with anti-β2m; also called peptide-receptive MHC molecules
Experiment: UV-ligand exchange, anti-b2m ELISA
Text: Candidate peptides for T cell based therapies according to the present invention were further tested for their MHC binding capacity (affinity). The individual peptide-MHC complexes were produced by UV-ligand exchange, where a UV-sensitive peptide is cleaved upon UV-irradiation and exchanged with the peptide of interest as analyzed. Only peptide candidates that can effectively bind and stabilize the peptide-receptive MHC molecules prevent dissociation of the MHC complexes. To determine the yield of the exchange reaction, an ELISA was performed based on the detection of the light chain (β2m) of stabilized MHC complexes. The assay was performed as generally described in Rodenko et al. (Rodenko et al., 2006)
96 well MAXISorp plates (NUNC) were coated over night with 2 ug/ml streptavidin in PBS at room temperature, washed 4× and blocked for 1 h at 37° C. in 2% BSA containing blocking buffer. Refolded HLA-A*02:01/MLA-001 monomers served as standards, covering the range of 15-500 ng/ml. Peptide-MHC monomers of the UV-exchange reaction were diluted 100-fold in blocking buffer. Samples were incubated for 1 h at 37° C., washed four times, incubated with 2 ug/ml HRP conjugated anti-β2m for 1 h at 37° C., washed again and detected with TMB solution that is stopped with […]. Absorption was measured at 450 nm.

Binder | peptide exchange yield
QITPKHNGLY | 20 to 50%
ESAPKEVSRY | 20 to 50%
KSFDDIAKY | 20 to 50%
MTDVFIDY | 50 to 75%
CVIETFHKY | 50 to 75%
LLPLLVMAY | 20 to 50%
RYLNIVHATQLY | 20 to 50%
RINSATGQY | 20 to 50%
DTDPLKAAGL | 10 to 20%
YTDLTTIQV | > 75%
SIEIDHTQY | 20 to 50%
VLDSLLAQY | > 75%
AQEAAVFLTLY | 50 to 75%
ETDWGLLKGHTY | > 75%
SSERGSPIEKY | 50 to 75%
EVLDSLLAQY | 20 to 50%
SLMVASLTY | 20 to 50%
GTNLPTLLW | 10 to 20%
LTSEDTGAY | 50 to 75%
NLDHYTNAY | 50 to 75%
VTKYIAGPY | 20 to 50%
LSDNAANRY | 50 to 75%
ARLEGEIATY | 20 to 50%

Binder | peptide exchange yield
SMIRVGTNY | 20 to 50%
VTDIDELGK | 50 to 75%
GVGFTELEY | 50 to 75%
GYVCNACGLY | 20 to 50%
GIEMTYETY | 20 to 50%
DTTSHTYLQY | 20 to 50%
YLESHGLAY | > 75%
AMMQEAQLAY | 50 to 75%
FLFNDALLY | > 75%
WELDSLEY | 20 to 50%
HAFESNNFIY | 20 to 50%
KSEMNVNMKY | > 75%
RPSSVLTIY | 50 to 75%
APDEVVALL | 20 to 50%
KPTEDSANVY | 50 to 75%
MTEGSTVNTEY | > 75%
NVKHFLNDLY | 50 to 75%
DCMDTEGSYM | 20 to 50%
ASDDFRSKY | 50 to 75%
YRDPVFVSL | 20 to 50%
LSDIDSRYI | 20 to 50%
LTDSFLLRF | > 75%
IVADDTVY | 50 to 75%

Binder | peptide exchange yield
AILHHLYFY | 10 to 20%
LPSPAATIWDY | 50 to 75%
DLKIDLAAQY | 20 to 50%
VAEPPVVCSY | 20 to 50%
IPQDECLRY | 50 to 75%
CGPNEINHFY | 20 to 50%
PSEVPVDSHY | > 75%
YADIHGDLL | 50 to 75%
ESDEMENLLTY | 50 to 75%
QITSFASGTSY | 50 to 75%
LPAPGFLFY | 20 to 50%
AATVKSDIY | 20 to 50%
LMTVLLKY | 50 to 75%
TTEMVSNESVDY | > 75%
YPDLSELLM | 20 to 50%
QAMPSWPTAAY | 20 to 50%
ETILVSSSY | 20 to 50%
PSEVPVDSHYY | 50 to 75%
TCSHTFVYY | 20 to 50%
VLPHHSEGACVY | 50 to 75%
ATDMEGNLNY | 50 to 75%
ENSIEDLQY | 50 to 75%
